Laboratory results taken from US20260042834A1, “ANTI-CORTICOTROPIN-RELEASING HORMONE ANTIBODIES AND POLYCYSTIC OVARY SYNDROME” (HBM ALPHA THERAPEUTICS, INC., priority 2022, published 2026).

How the values were obtained:
[1] = molecular target: biotinylated CRH (human and mouse); experiment: competitive ELISA, coated 1st mAb; competitor PR301777
[2] = molecular target: biotinylated CRH (human and mouse); experiment: competitive ELISA, coated 1st mAb; competitor PR006152
[3] = molecular target: biotinylated CRH (human and mouse); experiment: competitive ELISA, coated 1st mAb; competitor PR302069
[4] = molecular target: biotinylated CRH (human and mouse); experiment: competitive ELISA, coated 1st mAb; competitor hIgG1
[5] = molecular target: biotinylated CRH (human and mouse); experiment: competitive ELISA, coated 1st mAb; competitor PR004290
[6] = molecular target: biotinylated CRH (human and mouse); experiment: competitive ELISA, coated 1st mAb; competitor PR302050
[7] = molecular target: biotinylated CRH (human and mouse); experiment: Octet in-tandem, row = 1st mAb; competitor (2nd mAb) PR302341-34
[8] = molecular target: biotinylated CRH (human and mouse); experiment: Octet in-tandem, row = 1st mAb; competitor (2nd mAb) PR006669
[9] = molecular target: biotinylated CRH (human and mouse); experiment: competitive ELISA, coated 1st mAb; competitor PR005660
[10] = molecular target: biotinylated CRH (human and mouse); experiment: Octet in-tandem, row = 1st mAb; competitor (2nd mAb) PR302334
[11] = molecular target: biotinylated CRH (human and mouse); experiment: Octet in-tandem, row = 1st mAb; competitor (2nd mAb) PR302309-8
[12] = molecular target: biotinylated CRH (human and mouse); experiment: Octet in-tandem, row = 1st mAb; competitor (2nd mAb) PR301777
[13] = molecular target: biotinylated CRH (human and mouse); experiment: competitive ELISA, coated 1st mAb; competitor PR302055
[14] = molecular target: biotinylated CRH (human and mouse); experiment: competitive ELISA, coated 1st mAb; competitor PR302064
[15] = molecular target: biotinylated CRH (human and mouse); experiment: Octet in-tandem, row = 1st mAb; competitor (2nd mAb) PR005660
[16] = molecular target: biotinylated CRH (human and mouse); experiment: Octet in-tandem, row = 1st mAb; competitor (2nd mAb) PR303394
[17] = molecular target: biotinylated CRH (human and mouse); experiment: competitive ELISA, coated 1st mAb; competitor PR006148

Sequence of biotinylated CRH (human and mouse) (peptide, as listed by the source): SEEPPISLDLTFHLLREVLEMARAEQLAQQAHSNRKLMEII

% Inhibition [1]: 0%
% Inhibition [2]: 0%
% Inhibition [3]: 0%
% Inhibition [4]: 0%
% Inhibition [5]: 0%
% Inhibition [6]: 0%
% Inhibition [7]: 12%
% Inhibition [8]: 9%
% Inhibition [9]: 0%
% Inhibition [10]: 8%
% Inhibition [11]: 15%
% Inhibition [12]: 9%
% Inhibition [13]: 0%
% Inhibition [14]: 0%
% Inhibition [15]: 12%
% Inhibition [16]: 10%
% Inhibition [17]: 0%
Substance: hIgG1 (antibody)
